Experimental data as given in patent US20070172504A1, “In vivo cell surface engineering” (University of Lousville Research Foundation, Inc., priority 2005, published 2007).

Assays:
LLC cells = experiment: ex vivo co-display of fusion proteins on biotinylated LLC cells (flow cytometry); assay type: cell-based; conditions: 15 μM biotin, 100 ng/protein/10^6 cells
Experimental: (§1) Engineering of cell surfaces. LLC or A20 tumor cells are washed with ice-cold PBS and incubated at 2×10^7 cells/ml in PBS, pH 8.0, containing 5-15 μM EZ-Link™ Sulfo-NHS-LC-Biotin (Pierce) at room temperature for 30 min. Cells are washed extensively and incubated at 1×10^6 cell/ml with 100 ng/purified immune co-stimulatory-streptavidin fusion protein for 45 min at 4° C. After extensive washing with PBS, cells are processed for flow cytometric analysis to assess the cells engineered with the immune co-stimulatory fusion proteins. Such cells also are used for functional studies in vitro. Cells are irradiated at 100 Gy prior to being used in in vitro studies.
One million LLC cells were biotinylated using 15 μM of EZ-Link™ Sulfo-NHS-LC-Biotin derivative from Pierce Biotechnology, Inc. (Rockford, Ill.) in PBS at room temperature for 20-30 minutes. Biotin was then removed by centrifugation, cells were washed once, transferred into a clean second tube, washed 1-2 more times, and then contacted with CD80-CSA and 4-1BBL-CSA fusion proteins at 100 ng/protein/10^6 cells in PBS for 30-45 minutes on ice. Cells were then washed extensively and used for staining with saturating concentrations of various fluorochrome-conjugated antibodies to CD80 and 4-1BBL in PBS by incubation on ice for 30-45 minutes. Cells were then washed extensively with FACS medium and used for flow cytometric analysis. […] FIG. 8.

A20 cells [1] = experiment: ex vivo co-display of fusion proteins on biotinylated A20 cells (flow cytometry); assay type: cell-based; conditions: 5 μM biotin, 100 ng/protein/10^6 cells
Experimental: as §1
A20 cells were biotinylated (5 μM) and then contacted with CD80-CSA and 4-1BBL-CSA fusion proteins at 100 ng/protein/10^6 cells, following procedures similar to those set forth above.

CD4^+ or CD8^+ T cells = experiment: proliferation of CFSE-labeled T cells against A20 cells decorated with 4-1BBL; assay type: cell-based, C57B/6 (H2-K^b) mice; conditions: 4:1 ratio, 4 days co-culture, flow cytometry
Experimental: CD4^+ and CD8^+ T cells were FACS-sorted from spleens and lymph nodes of naïve C57B/6 (H2-K^b) mice and were stained with carboxyfluorescein diacetate succinimidylester (CFSE). Briefly, cells were washed with PBS, incubated in 4 ml of 2.5 μM CFSE/1×10^6 cells for 7 minutes at room temperature. Cells were then incubated in two volumes of FBS for 1 min, and washed 2 times with PBS. A20 B lymphoma cells (H2-K^d) were washed in PBS and biotinylated using freshly prepared EZ-Link Sulfo-NHS-LC-Biotin in PBS (1 ml solution per 50×10^6 cells) for 30 min at room temperature. After washing with PBS, cells were irradiated at 10000 cGy. Biotinylated and irradiated A20 cells were incubated with CSA-4-1BBL (100 ng/1×10^6cells) or control protein CSA (38 ng/1×10^6 cells) in 5 ml tubes for 30 minutes in a cold room. After washing the cells extensively, some of the cells were stained with fluorochrome conjugated antibodies against 4-1BBL and streptavidin to detect the decoration, or with fluorochrome conjugated streptavidin to detect biotinylation. […]
Proliferation of T cells were determined using flow cytometry after staining cells with fluorochrome conjugated anti-CD4 or anti-CD8 antibodies.

splenocytes = experiment: in vivo kinetics of protein display on ex vivo engineered splenocytes; conditions: 15 μM biotin, 100 ng/1×10^6 cells, injected intravenously into syngeneic animals
Experimental: The kinetics of persistence of the exogenous proteins on the cell surface was determined in vivo. Splenocytes were modified with biotin (15 μM), engineered with an CD80-CSA fusion protein (100 ng/1×10^6 cells), labeled with CFSE, and injected intravenously into syngeneic animals. Splenocytes and LN cells were harvested various days post-injection and analyzed for the presence of fusion protein on CFSE positive cells. CD80-CSA persisted on the surface of splenocytes with a t1/2 of >10 days. FIG. 9.

A20 B lymphoma cells [2] = experiment: quantification of CD80-CSA molecules displayed per cell (Quantum-27 MESF kit); assay type: cell-based; conditions: 5 μM biotin, 100 ng protein
Experimental: Cells were stained with phycoerythrin (PE) conjugated anti-human CD80 antibody. The Quantum-27 MESF kit from Bangs Laboratories was used to estimate the number of CD80-CSA molecules per cell. Molecules of equivalent soluble fluorochrome (MESF) for the samples were calculated according to the calibration curve constructed by five MESF beads with varying MESF values (0, 727, 2737, 10110, 41738) using Cell Quest analysis program (Becton Dickinson Biosciences). The data for each sample was converted into MESF values. FIG. 10.

[3] = tested on: peripheral blood lymphocytes from healthy volunteers; experiment: MLTR assay with tumor cells engineered with CD80-CSA; assay type: cell-based, human; conditions: HEC-1-A endometrial cancer cell line engineered with CD80-CSA
A20 B lymphoma cells [4] = experiment: in vivo engineering of solid A20 tumors (intratumoral biotin, then CD80-CSA); parameters: species or system Balb/c mice
Experimental: One million live A20 B lymphoma cells were injected subcutaneously to the right flank of naïve syngeneic Balb/c mice. When the tumor size reached 7-9 mm in diameter, 300 μL of 1 mM EZ-Link Sulfo-NHS-LC-Biotin in PBS was injected into the tumor, followed 24 hrs later by intratumoral injection of 40 μg of CD80-CSA fusion protein in 150 μL PBS. Tumor cells were harvested and analyzed 24 hrs after protein injection. Biotin levels were detected by streptavidin-APC and fusion protein levels were detected by an antibody against CD80. Cells from untreated tumors and biotinylated tumors were used as negative controls for biotin and CD80, respectively.

A20 cells [5] = experiment: effect of timing of CD80-CSA administration after biotinylation of A20 tumors; assay type: in vivo, BALB/c mice
Experimental: A similar protocol was followed to evaluate the effect of the timing of the CD80-CSA administration subsequent to biotinylation. 1×10^6 A20 cells were injected subcutaneously into the right back flank of naïve BALB/c mice. Tumor growth was monitored and measured using calipers three times a week. When the tumor size reached 7-9 mm average diameter, 300 μl of 5 mM biotin solution (EZ-Link Sulfo-NHS-LC-Biotin in PBS) was injected into the tumors. At 2, 4, 8 or 16 hours after biotin injection, biotinylation was assessed as described above and 50 μg of CD80-SA was administered by intratumoral injection. (Some animals were left untreated as negative controls.) Animals were euthanized 16 hours after CD80-SA injection. Tumors were processed into single cell suspensions, and fusion protein levels were detected by an antibody against CD80 using flow cytometry. The results (FIG. 16) show a greater percentage of biotinylated cells decorated when the fusion protein was administered 16 hours after biotin administration, with 62% of biotinylated cells being decorated, compared to 49%, 31% and 10% at 8, 4 and 2 hours post-biotin administration, respectively.

Molecule	display on the surface of tumor cells (LLC cells)	display on the surface of tumor cells (A20 cells [1])	proliferative response of T cells against decorated A20 cells (CD4^+ or CD8^+ T cells) [%]	t1/2 of persistence on the surface of splenocytes in vivo (splenocytes) [h]	average number of molecules per cell (A20 B lymphoma cells [2])	proliferative response of peripheral blood lymphocytes [3]	tumor cells positive for CD80 (A20 B lymphoma cells [4]; 40 μg intratumorally 24 hrs after biotin, 24 hrs after protein injection) [%]	biotin positive cells displaying protein (A20 B lymphoma cells [4]; I mM biotin followed by 40 μg 24 hrs later) [%]	biotinylated cells being decorated (A20 cells [5]; 50 μg intratumorally 2 hours after 5 mM biotin) [%]	biotinylated cells being decorated (A20 cells [5]; 50 μg intratumorally 4 hours after 5 mM biotin) [%]	biotinylated cells being decorated (A20 cells [5]; 50 μg intratumorally 8 hours after 5 mM biotin) [%]	biotinylated cells being decorated (A20 cells [5]; 50 μg intratumorally 16 hours after 5 mM biotin) [%]
4-1BBL-CSA: CSA-murine 4-1 BBL fusion protein (SEQ ID NOs 5 and 6) (protein) FMQLKGGSDLNMKLCILLAVVAFVGLSLGRSHHHHHHITGTWYNQLGSTFIVTAGADGALTGTYESAVGNAESRYVLTGRYDSAPATDGSGTALGWTVAWKNNYRNAHSATTWSGQYVGGAEARINTQWLLTSGATEANAWKSTLVGHDTFTKVKPSAASSEFRTEPRPALTITTSPNLGTRENNADQVTPVSHIGCPNTTQQGSPVFAKLLAKNQASLCNTTLNWHSQDGAGSSYLSQGLRYEEDKKELVVDSPGLYYVFLELKLSPTFTNTGHKVQGWVSLVLQAKPQVDDFDNLALTVELFPCSMENKLVDRSWSQLLLLKAGHRLSVGLRAYLHGAQDAYRDWELSYPNTTSFGLFLVKPDNPWE	co-displayed on the surface of tumor cells at comparable levels	co-displayed on the surface of tumor cells at comparable levels	52.6	–	–	–	–	–	–	–	–	–
CD80-CSA: chimeric protein comprising the extracellular domain of human B7.1 (CD80) and core streptavidin (SEQ ID NO:4) (protein) SPVQLKGGSDLNMKLCILLAVVAFVGLSLGRSIHVTKEVKEVATLSCGHNVSVEELAQTRIYWQKEKKMVLTMMSGDMNIWPEYKNRTIFDITNNLSIVILALRPSDEGTYECVVLKYEKDAFKREHLAEVTLSVKADFPTPSISDFEIPTSNIRRIICSTSGGFPEPHLSWLENGEELNAINTTVSQDPETELYAVSSKLDFNMTTNHSFMCLIKYGHLRVNQTFNWNTTKQERSHHHHHHITGTWYNQLGSTFIVTAGADGALTGTYESAVGNAESRYVLTGRYDSAPATDGSGTALGWTVAWKNNYRNAHSATTWSGQYVGGAEARINTQWLLTSGATEANAWKSTLVGHDTFTKVKPSAASSRILQISSTVAAARV	co-displayed on the surface of tumor cells at comparable levels	co-displayed on the surface of tumor cells at comparable levels	–	> 240	118,000 molecules per cell	potent proliferative responses	81	> 80	10	31	49	62
